Test system: peptide library, one residue held at a place counted from the S/T acceptor
Assay: relative phosphorylation of the sub-library (ratio to the mean residue at this position); human; higher = residue favoured
Outline: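 Relative sub-library phosphorylation, a ratio to the mean residue at that position, was obtained by phosphorimaging and densitometry of spots on streptavidin membranes. Before capture, purified recombinant kinases were incubated for 90 min under kinase-specific conditions with 50 μM biotinylated degenerate peptide sub-libraries and 50 μM ATP spiked with γ-32P-ATP. Each sub-library fixed one residue at one position around a central Ser/Thr.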

Chain of PAK2, construct: aa3-end (Q13177 3-524, looked up): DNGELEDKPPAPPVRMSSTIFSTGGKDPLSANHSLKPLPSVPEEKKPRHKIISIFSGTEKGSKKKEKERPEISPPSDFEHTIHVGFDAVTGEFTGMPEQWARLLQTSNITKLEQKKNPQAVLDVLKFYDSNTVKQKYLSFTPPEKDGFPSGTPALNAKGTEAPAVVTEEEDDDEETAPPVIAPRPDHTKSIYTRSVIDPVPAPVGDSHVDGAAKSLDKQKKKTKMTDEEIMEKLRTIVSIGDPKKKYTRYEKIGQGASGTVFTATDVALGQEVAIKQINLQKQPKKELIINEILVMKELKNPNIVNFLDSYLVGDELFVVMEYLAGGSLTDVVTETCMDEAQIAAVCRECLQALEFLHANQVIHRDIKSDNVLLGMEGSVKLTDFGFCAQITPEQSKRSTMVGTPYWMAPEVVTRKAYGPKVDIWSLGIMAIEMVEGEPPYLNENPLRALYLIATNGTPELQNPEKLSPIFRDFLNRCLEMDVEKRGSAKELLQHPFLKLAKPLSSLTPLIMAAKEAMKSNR
Chain of PAK3, construct: Full length (O75914 whole entry, looked up): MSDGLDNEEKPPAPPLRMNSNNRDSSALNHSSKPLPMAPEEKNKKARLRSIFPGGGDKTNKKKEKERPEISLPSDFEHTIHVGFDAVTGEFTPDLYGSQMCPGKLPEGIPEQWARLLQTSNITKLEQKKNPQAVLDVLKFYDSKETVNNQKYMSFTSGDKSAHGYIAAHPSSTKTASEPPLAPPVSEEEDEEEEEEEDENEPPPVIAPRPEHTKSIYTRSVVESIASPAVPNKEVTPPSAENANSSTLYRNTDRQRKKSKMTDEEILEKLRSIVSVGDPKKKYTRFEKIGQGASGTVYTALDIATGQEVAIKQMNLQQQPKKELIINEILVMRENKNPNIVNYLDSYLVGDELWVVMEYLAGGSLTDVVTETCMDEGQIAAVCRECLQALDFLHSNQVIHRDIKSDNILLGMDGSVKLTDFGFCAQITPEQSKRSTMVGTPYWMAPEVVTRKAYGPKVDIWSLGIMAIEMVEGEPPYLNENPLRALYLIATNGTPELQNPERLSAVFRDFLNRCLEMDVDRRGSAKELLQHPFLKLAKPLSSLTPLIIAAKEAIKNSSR
Chain of PAK1, construct: aa150-end (Q13153 150-545, looked up): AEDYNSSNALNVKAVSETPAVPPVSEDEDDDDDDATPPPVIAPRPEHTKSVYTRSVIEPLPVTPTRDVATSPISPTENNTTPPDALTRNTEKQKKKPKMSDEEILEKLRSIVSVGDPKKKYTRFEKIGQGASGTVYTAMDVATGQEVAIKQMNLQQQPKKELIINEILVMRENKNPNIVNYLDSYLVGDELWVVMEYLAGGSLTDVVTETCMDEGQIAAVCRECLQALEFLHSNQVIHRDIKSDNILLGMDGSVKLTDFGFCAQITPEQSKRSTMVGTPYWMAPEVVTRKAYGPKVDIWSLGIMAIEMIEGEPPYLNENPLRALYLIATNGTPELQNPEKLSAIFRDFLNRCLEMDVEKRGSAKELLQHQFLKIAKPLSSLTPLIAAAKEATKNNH

PAK1, construct: aa150-end (from UniProt Q13153)
relative phosphorylation
Conditions | at +1 | at +2 | at +3 | at +4 | at -1 | at -2 | at -3 | at -4 | at -5
A fixed | 0.877 | 1.16 | 0.875 | 1.05 | 0.946 | 0.789 | 0.87 | 1.27 | 1.39
D fixed | 0.338 | 0.472 | 0.959 | 1.32 | 0.592 | 0.203 | 0.558 | 0.825 | 0.785
E fixed | 0.428 | 0.398 | 1.09 | 1.29 | 0.559 | 0.206 | 0.495 | 0.85 | 0.676
F fixed | 0.993 | 1.14 | 1.33 | 0.741 | 0.696 | 0.346 | 0.464 | 0.633 | 0.68
G fixed | 0.895 | 0.726 | 1.22 | 1.24 | 0.782 | 0.526 | 0.869 | 1.4 | 1.44
H fixed | 1.09 | 1.6 | 1.17 | 0.97 | 1.35 | 1.37 | 1.4 | 1.14 | 1.16
I fixed | 1.03 | 1.1 | 0.826 | 0.773 | 0.564 | 0.551 | 0.41 | 0.529 | 0.55
K fixed | 1.18 | 0.604 | 0.775 | 1.08 | 1.72 | 1.32 | 2.34 | 1.71 | 1.88
L fixed | 0.969 | 1.09 | 1.04 | 0.77 | 0.821 | 0.374 | 0.415 | 0.547 | 0.53
M fixed | 1.58 | 1.02 | 0.913 | 0.783 | 0.927 | 0.36 | 0.485 | 0.744 | 0.587
N fixed | 0.895 | 0.885 | 0.971 | 1.11 | 1.19 | 0.518 | 0.965 | 1.01 | 1.03
P fixed | 0.228 | 0.716 | 1.03 | 1.4 | 0.646 | 1.08 | 0.823 | 1.24 | 1.16
Q fixed | 1.3 | 0.766 | 0.897 | 1.2 | 1.11 | 0.673 | 0.952 | 1.08 | 0.964
R fixed | 1.46 | 0.793 | 0.841 | 0.95 | 2.22 | 6.99 | 4.23 | 1.99 | 2.04
V fixed | 0.971 | 0.925 | 0.797 | 0.851 | 0.766 | 0.724 | 0.431 | 0.624 | 0.707
W fixed | 1.57 | 0.978 | 1.03 | 0.806 | 0.886 | 0.369 | 0.703 | 0.756 | 0.668
Y fixed | 1.19 | 2.62 | 1.22 | 0.652 | 1.22 | 0.6 | 0.594 | 0.672 | 0.762
pThr fixed | 0.668 | 0.676 | 0.877 | 1.4 | 0.439 | 0.503 | 0.568 | 0.857 | 0.666
pTyr fixed | 0.886 | 4.31 | 1.28 | 1.09 | 0.672 | 0.392 | 0.853 | 0.808 | 0.675

PAK2, construct: aa3-end (from UniProt Q13177)
relative phosphorylation
Conditions | at +1 | at +2 | at +3 | at +4 | at -1 | at -2 | at -3 | at -4 | at -5
A fixed | 0.794 | 0.823 | 0.781 | 0.846 | 0.808 | 0.606 | 0.786 | 0.97 | 1.05
D fixed | 0.359 | 0.391 | 0.855 | 0.98 | 0.562 | 0.197 | 0.506 | 0.844 | 0.724
E fixed | 0.432 | 0.37 | 0.921 | 0.988 | 0.522 | 0.222 | 0.469 | 0.891 | 0.602
F fixed | 1.18 | 1.76 | 1.77 | 0.95 | 0.956 | 0.464 | 0.699 | 0.729 | 0.803
G fixed | 0.916 | 0.643 | 0.868 | 1.01 | 0.668 | 0.479 | 0.891 | 1.06 | 1.2
H fixed | 0.997 | 1.4 | 1.14 | 1.07 | 1.29 | 1.44 | 1.2 | 1.09 | 1.16
I fixed | 1.22 | 1.22 | 1.03 | 0.87 | 0.796 | 0.606 | 0.583 | 0.673 | 0.741
K fixed | 1.01 | 0.452 | 0.623 | 0.938 | 1.41 | 1.12 | 1.78 | 1.58 | 1.81
L fixed | 1.16 | 1.37 | 1.13 | 1.02 | 1.18 | 0.391 | 0.561 | 0.729 | 0.707
M fixed | 1.64 | 1.14 | 1.07 | 1.07 | 1.17 | 0.416 | 0.599 | 0.885 | 0.672
N fixed | 0.738 | 0.734 | 0.847 | 1.22 | 1.07 | 0.503 | 0.977 | 1.02 | 1.04
P fixed | 0.222 | 0.625 | 0.903 | 1.38 | 0.723 | 0.935 | 0.894 | 0.944 | 0.926
Q fixed | 1.06 | 0.797 | 0.754 | 1.08 | 1.08 | 0.572 | 0.827 | 0.901 | 0.889
R fixed | 1.19 | 0.658 | 0.657 | 0.821 | 1.72 | 7.1 | 3.91 | 2.26 | 2.31
V fixed | 1.2 | 1.01 | 0.906 | 0.787 | 0.763 | 0.642 | 0.557 | 0.688 | 0.694
W fixed | 1.65 | 1.18 | 1.33 | 1.15 | 1.03 | 0.485 | 0.954 | 0.887 | 0.801
Y fixed | 1.23 | 2.42 | 1.42 | 0.824 | 1.25 | 0.821 | 0.801 | 0.84 | 0.858
pThr fixed | 0.66 | 0.551 | 0.597 | 1.12 | 0.392 | 0.495 | 0.74 | 1.04 | 0.931
pTyr fixed | 0.822 | 2.1 | 1.11 | 0.856 | 0.652 | 0.379 | 0.8 | 0.71 | 0.876

PAK3, construct: Full length (from UniProt O75914)
relative phosphorylation
Conditions | at +1 | at +2 | at +3 | at +4 | at -1 | at -2 | at -3 | at -4 | at -5
A fixed | 0.949 | 1.12 | 1.05 | 1.07 | 0.974 | 0.862 | 0.985 | 1.32 | 1.33
D fixed | 0.291 | 0.36 | 0.768 | 0.986 | 0.485 | 0.178 | 0.437 | 0.64 | 0.604
E fixed | 0.356 | 0.297 | 0.701 | 0.89 | 0.463 | 0.19 | 0.415 | 0.665 | 0.547
F fixed | 1.14 | 1.37 | 1.37 | 0.847 | 0.752 | 0.471 | 0.59 | 0.732 | 0.876
G fixed | 0.706 | 0.615 | 0.97 | 1.13 | 0.716 | 0.449 | 0.825 | 1.32 | 1.24
H fixed | 1.09 | 1.57 | 1.2 | 1.14 | 1.31 | 1.61 | 1.32 | 1.29 | 1.1
I fixed | 1.27 | 1.19 | 0.983 | 0.777 | 0.701 | 0.624 | 0.494 | 0.629 | 0.643
K fixed | 1.07 | 0.645 | 0.764 | 1.03 | 1.61 | 1.3 | 2.22 | 1.28 | 1.81
L fixed | 1.1 | 1.17 | 1.12 | 0.905 | 1.11 | 0.439 | 0.558 | 0.689 | 0.636
M fixed | 1.54 | 1.04 | 1.02 | 0.933 | 1.12 | 0.48 | 0.693 | 0.873 | 0.681
N fixed | 0.749 | 0.728 | 0.847 | 1.03 | 1.04 | 0.584 | 0.825 | 0.966 | 0.863
P fixed | 0.21 | 0.655 | 0.976 | 1.45 | 0.611 | 0.817 | 0.823 | 1.14 | 1.09
Q fixed | 1.09 | 0.729 | 0.886 | 1.17 | 1 | 0.715 | 0.878 | 1.05 | 0.93
R fixed | 1.35 | 0.853 | 0.819 | 0.933 | 2.06 | 6.37 | 3.73 | 1.86 | 2.24
V fixed | 1.12 | 1.11 | 0.955 | 0.908 | 0.914 | 0.748 | 0.512 | 0.756 | 0.757
W fixed | 1.66 | 1.11 | 1.26 | 1.04 | 0.976 | 0.423 | 0.907 | 0.901 | 0.812
Y fixed | 1.3 | 2.44 | 1.3 | 0.753 | 1.16 | 0.747 | 0.785 | 0.89 | 0.852
pThr fixed | 0.479 | 0.471 | 0.632 | 0.99 | 0.367 | 0.411 | 0.546 | 0.754 | 0.574
pTyr fixed | 0.635 | 2.43 | 0.9 | 0.76 | 0.605 | 0.323 | 0.743 | 0.654 | 0.619

Source: the supplement of paper PMC9876800
